Common to all, as to format: protein assay
Substrate in data set [1]: O=[N+]([O-])c1ccc(O[C@H]2O[C@H](CO)[C@@H](O)[C@H](O)[C@@H]2O)cc1
The experiment in a line: (§1) Ratio of Kcat to Km for Bacteroides thetaiotaomicron GH92 alpha-mannosidase GH92 alpha-mannosidase 3784 assessed as mannose release after 16 hrs by HPLC.

Substrate in data set [2]: OC[C@H]1O[C@H](O[C@H]2[C@@H](O)[C@H](O)[C@@H](CO)O[C@@H]2O)[C@@H](O)[C@@H](O)[C@@H]1O
Described as §1.

Substrate in data set [3]: O=[N+]([O-])c1ccc(O[C@H]2O[C@H](CO)[C@@H](O)[C@H](O)[C@@H]2O)cc1
The experiment in a line: (§2) Activity of Bacteroides thetaiotaomicron GH92 alpha-mannosidase GH92 alpha-mannosidase 3784 assessed as mannose release after 16 hrs by HPLC.

Substrate in data set [4]: OC[C@H]1O[C@H](O[C@H]2[C@@H](O)[C@H](O)[C@@H](CO)O[C@@H]2O)[C@@H](O)[C@@H](O)[C@@H]1O
Described as §2.

Substrate in data set [5]: O=[N+]([O-])c1ccc(O[C@H]2O[C@H](CO)[C@@H](O)[C@H](O)[C@@H]2O)cc1
The data set can be described thus: (§3) Ratio of Kcat to Km for Bacteroides thetaiotaomicron GH92 alpha-mannosidase GH92 alpha-mannosidase 3965 assessed as mannose release after 16 hrs by HPLC.

Substrate in data set [6]: OC[C@H]1O[C@H](O[C@H]2[C@H](O)[C@H](O)[C@@H](O)O[C@@H]2CO)[C@@H](O)[C@@H](O)[C@@H]1O
Described as §3.

Substrate in data set [7]: O=[N+]([O-])c1ccc(O[C@H]2O[C@H](CO)[C@@H](O)[C@H](O)[C@@H]2O)cc1
The experiment in a line: (§4) Activity of Bacteroides thetaiotaomicron GH92 alpha-mannosidase GH92 alpha-mannosidase 3965 assessed as mannose release after 16 hrs by HPLC.

Substrate in data set [8]: OC[C@H]1O[C@H](O[C@H]2[C@H](O)[C@H](O)[C@@H](O)O[C@@H]2CO)[C@@H](O)[C@@H](O)[C@@H]1O
The data set is described as §4.

Substrate in data set [9]: O=[N+]([O-])c1ccc(O[C@H]2O[C@H](CO)[C@@H](O)[C@H](O)[C@@H]2O)cc1
The experiment in a line: Ratio of Kcat to Km for Bacteroides thetaiotaomicron GH92 alpha-mannosidase GH92 alpha-mannosidase 3991 assessed as mannose release after 16 hrs by HPLC.

Substrate in data set [10]: O=[N+]([O-])c1ccc(O[C@H]2O[C@H](CO)[C@@H](O)[C@H](O)[C@@H]2O)cc1
The data set can be described thus: Activity of Bacteroides thetaiotaomicron GH92 alpha-mannosidase GH92 alpha-mannosidase 3991 assessed as mannose release after 16 hrs by HPLC.

B1: Alpha-1,2-mannosidase (BT_3784) (Bacteroides thetaiotaomicron), Q8A182 (protein)
chain: MKTHFSFKHLLFIGGAVLYSMQISAVKNPVDYVSTLVGTQSKFELSTGNTYPATALPWGMNFWTPQTGKMGDGWAYTYNADKIRGFKQTHQPSPWMNDYGQFSIMPITGGLVFDQDQRASWFSHKAEVAKPYYYKVYLADHDVTTELVPTERAAMFRFTYPETKNAYVVIDAFDKGSYVKVIPEENKIIGYSTKNSGGVPENFKNYFVIQFDKPFTFTSGVKENNILPNETEVQGNHTGAIIGFATQKGEIVHARVASSFISYEQAELNLKELGKDSFDQLVTKGKDIWNREMSKVDVEDDNIDNLRTFYSCLYRSMLFPRSFYEIDAKGQVVHYSPYNGKVLPGYMFTDTGFWDTFRCLFPFLNLMYPSMNQKMQEGLVNAYLESGFLPEWASPGHRDCMVGNNSASVVADAYIKGLRGYDIETLWEALKHDANAHLRGTASGRLAYDAYNKLGYVPNNIGIGQNVARTLEYAYNDWTIYTLGKKLGKPASEIDIFKQRALNYKNVYHPKRKLMVGKDDKGVFNPKFDAVDWSGEFCEGNSWHWSFCVFHDPQGLIDLMGGKKEFNNMMDSVFVIPGKQGMESRGMIHEMREMQVMNMGQYAHGNQPIQHMVYLYNYSGEPWKAQHWVREIMDKLYTAGPDGYCGDEDNGQTSAWYVFSALGFYPVCPGTDQYILGTPLFKSAKLHLENGKTVTIKASNNNTDNRYVKDMKVNGKAFTRNYLTHDQLLKGANIQYQMSPTPNKQRGTTEKDIPYSLSFE
With B1, the kcat/Km (in general, the second-order rate constant that governs catalysis at low substrate concentration) came out at 11.5 M⁻¹ s⁻¹ in data set [1] and 183 M⁻¹ s⁻¹ in [2]. Moreover, the results for the Km in data set [3] and in data set [4] were 6900 µM and 2300 µM, respectively. The kcat (as a rule, the maximal rate divided by the concentration of active sites) in [3] came out at 0.08 s⁻¹; in data set [4] it was 0.45 s⁻¹.

B2: Alpha-1,2-mannosidase (BT_3965) (Bacteroides thetaiotaomicron), Q8A0Q6 (protein)
chain: MAQTEKLTDYVNPFVGTDGYGNVYPGAQIPFGGIQISPDTDSRFYDAASGYKYNHLTLMGFSLTHLSGTGIPDLGDFLFIPGTGEMKLEPGTHEDPDQGYRSRYSHDKEWASPNYYAVELADYGVKAEMTSGVRSGMFRFTYPESDNAFIMIDMNHTLWQSCEWSNLRMINDSTITGYKLVKGWGPERHVYFTATFSKKLTGLRFVQDKKPVIYNTSRFRSSYEAWGKNLMACISFDTKAGEEVTVKTAISAVSTDGARNNMKELDGLTFNELRAKGEALWEKELGKYTLTADRKTKETFYTSAYHAALHPFIFQDSDGQFRGLDKNIEKAEGFTNYTVFSLWDTYRALHPWFNLVQQEVNADIANSMLAHYDKSVEKMLPIWSFYGNETWCMIGYHAVSVLADMIVKEVKGFDYERAYEAMKTTAMNSNYDCLPEYREMGYVPFDKEAESVSKTLEYAYDDYCIAQAAKKLGKEDDYHYFLNRALSYQTLIDPETKYMRGRDSKGDWRTPFTPVAYQGPGSVHGWGDITEGFTMQYTWYVPQDVQGYINEAGKELFRKRLDELFTVELPDDIPGAHDIQGRIGAYWHGNEPCHHVAYLYNYLKEPWKCQKWIRTIVDRFYGNTPDALSGNDDCGQMSAWYMFNCIGFYPVAPSSNIYNIGSPCAEAITVRMSNGKNIEMTADNWSPKNLYVKELYVNGKKYDKSYLTYDDIRDGVKLRFVMSGKPNYKRAVSDEAVPPSISLPEKTMKYKSSIGF
Consider B2, for which the kcat/Km in data set [5] stood at 233 M⁻¹ s⁻¹; in [6], 183 M⁻¹ s⁻¹. In addition, the Km (usually the concentration of substrate that gives half-maximal velocity) in data set [7] came to 1000 µM; in data set [8], 8000 µM. The kcat in data set [7] is 0.233 s⁻¹; in data set [8] it was 1.48 s⁻¹.

B3: Alpha-1,2-mannosidase (BT_3991) (Bacteroides thetaiotaomicron), Q8A0N0 (protein)
chain: MKLKTLLIGCFGGFIMLNSCTESPSVKDYSAYVNPFIGTGGHGHTFPGAVVPHGMIQPSPDTRIDGWDACSGYYYDDNTINGFSHTHVSGTGCCDYGDVLLMPTVGKPQYLTTDPESQKLAYASAFSHENETAEPGYYSVFLDTYQVKAEITATKRGAIHRYTFPESTESGFIIDLDYSLQRQTNYEMEIEVISDTEICGHKKTTYWAFDQYINFYAKFSKPFAYTLITDSVTMDNGKRLPVCKAVLHFNTKKDEEVLVKVGVSAVDIAGARKNVESEIPEWDFDKVRKDARTAWNNYLSKIDITTSDKEDKTIFYTALYHTAISPNLFTDADGRYLGMDLEVHQGDTINPLYTVFSLWDTFRALHPLMTIIDPNLNNQFINSLIRKHQEGGIYPMWDLASNYTGTMIGYHAVPVIVDAYMKGYRNFDAHEAYKASLRAAEYDTTGIKCPDLVLPHLMPKAKYYKNAIGYIPCDRENESVAKALEYAYDDWCISIFAEAMNDFENKAKYERFAKAYEFYFDKSTRFMRGLDSNGEWRTPFNPRASTHRSDDYCEGTAWQWTWFVPHDVEGLVKLMGGEDAFVEKLDSLFTVDSSLDGETTSADISGLIGQYAHGNEPSHHVIHLYNYVNRPWRTQELVDSVYRSQYANNVDGLSGNEDCGQMSAWYILNSMGFYQVCPGKPVYSIGRPAFDKAVINLPGEKTFSIVAKNNSKSNKYIESVLLNGKPLDTPFFGHQDIVAGGVMEIRMTDHPTQWGVRQ
Turning to B3, in data set [9], the catalytic efficiency (kcat/Km) is 0.917 M⁻¹ s⁻¹. In addition, in [10], the Km came out at 2700 µM and the kcat was 0.0025 s⁻¹.

The values above are taken from ChEMBL document CHEMBL1250451, “Mechanistic insights into a Ca2+-dependent family of alpha-mannosidases in a human gut symbiont” (Nat Chem Biol, 2010).
